Source: US20240400715A1 (VIBRANT PHARMA, published 2024)
Where “and” joins values, the source holds several entries; their conditions need not be identical. Equal entries are not always repeated.

B1: 311 (TA6), configuration of FIG. 1X (bispecific antibody, IgG4)
heavy: EVQLVQSGAEVKKPGASVKVSCKASGYTFTNYYIHWVRQAPGQGLEWIGWIYPGDGNTKYNEKFKGRATLTADTSTSTAYLELSSLRSEDTAVYYCARDSYSNYYFDYWGQGTLVTVSSASTKGPSVFPLAPCSRSTSESTAALGCLVKDYFPEPVTVSWNSGALTSGVHTFPAVLQSSGLYSLSSVVTVPSSSLGTKTYTCNVDHKPSNTKVDKRVESKYGPPCPPCPAPEAAGGPSVFLFPPKPKDTLMISRTPEVTCVVVDVSQEDPEVQFNWYVDGVEVHNAKTKPREEQFNSTYRVVSVLTVLHQDWLNGKEYKCKVSNKGLPSSIEKTISKAKGQPREPQVYTLPPCQEEMTKNQVSLWCLVKGFYPSDIAVEWESNGQPENNYKTTPPVLDSDGSFFLYSRLTVDKSRWQEGNVFSCSVMHEALHNHYTQKSLSLSLGGGGSGGGGSEVQLVESGGGFVQAGESLTLSCTSSTLTFTPYRMAWYRQAPGKQRDLVADISSGDGRTTNYADFAKGRFTISRDNIKNTVFLRMTNLKPEDTAVYYCNTFVSFVGIARSWGQGTQVTVSS
chain: ESKYGPPCPPCPAPEAAGGPSVFLFPPKPKDTLMISRTPEVTCVVVDVSQEDPEVQFNWYVDGVEVHNAKTKPREEQFNSTYRVVSVLTVLHQDWLNGKEYKCKVSNKGLPSSIEKTISKAKGQPREPQVCTLPPSQEEMTKNQVSLSCAVKGFYPSDIAVEWESNGQPENNYKTTPPVLDSDGSFFLVSRLTVDKSRWQEGNVFSCSVMHEALHNRFTQKSLSLSL
light: DIVMTQSPDSLAVSLGERATINCKSSQSLLNSRTRKNYLAWYQQKPGQPPKLLIYWASTRESGVPDRFSGSGSGTDFTLTISSLQAEDVAVYYCTQSFILRTFGQGTKVEIK
notes: chains put together from parts; IgG4, kappa; not shown: kappa light chain constant domain (CL)
B2: CEA-Knob+Hole-Fab (110) (bispecific antibody, human IgG4 S228P, kappa, F234A L235A)
chain: EVQLVESGGGFVQAGESLTLSCTSSTLTFTPYRMAWYRQAPGKQRDLVADISSGDGRTTNYADFAKGRFTISRDNIKNTVFLRMTNLKPEDTAVYYCNTFVSFVGIARSWGQGTQVTVSSESKYGPPCPPCPAPEAAGGPSVFLFPPKPKDTLMISRTPEVTCVVVDVSQEDPEVQFNWYVDGVEVHNAKTKPREEQFNSTYRVVSVLTVLHQDWLNGKEYKCKVSNKGLPSSIEKTISKAKGQPREPQVYTLPPCQEEMTKNQVSLWCLVKGFYPSDIAVEWESNGQPENNYKTTPPVLDSDGSFFLYSRLTVDKSRWQEGNVFSCSVMHEALHNHYTQKSLSLSL
heavy: ESKYGPPCPPCPAPEAAGGPSVFLFPPKPKDTLMISRTPEVTCVVVDVSQEDPEVQFNWYVDGVEVHNAKTKPREEQFNSTYRVVSVLTVLHQDWLNGKEYKCKVSNKGLPSSIEKTISKAKGQPREPQVCTLPPSQEEMTKNQVSLSCAVKGFYPSDIAVEWESNGQPENNYKTTPPVLDSDGSFFLVSRLTVDKSRWQEGNVFSCSVMHEALHNRFTQKSLSLSLGGGGSGGGGSEVKLLESGGGLVQPKGSLKLSCAASGFTFNTYAMNWVRQAPGKGLEWVARIRSKYNNYATYYADSVKDRFTISRDDSQSILYLQMNNLKTEDTAMYYCVRHGNFGNSYVSWFAYWGQGTLVTVSSASTKGPSVFPLAPCSRSTSESTAALGCLVKDYFPEPVTVSWNSGALTSGVHTFPAVLQSSGLYSLSSVVTVPSSSLGTKTYTCNVDHKPSNTKVDKRV
light: QAVVTQESALTTSPGETVTLTCRSSTGAVTTSNYANWVQEKPDHLFTGLIGGTNKRAPGVPARFSGSLIGDKAALTITGAQTEDEAIYFCALWYSNLWVFGGGTKVEIKRTVAAPSVFIFPPSDEQLKSGTASVVCLLNNFYPREAKVQWKVDNALQSGNSQESVTEQDSKDSTYSLSSTLTLSKADYEKHKVYACEVTHQGLSSPVTKSFNRGEC
notes: Anti-CD3 TA1 Fab + anti-CEA VHH C17 on human IgG4 knob-into-hole Fc; also called CEA-CD3 bispecific antibody 110
B3: Knob+CEA-Hole-Fab (111) (bispecific antibody, human IgG4 S228P, kappa, F234A L235A)
chain: ESKYGPPCPPCPAPEAAGGPSVFLFPPKPKDTLMISRTPEVTCVVVDVSQEDPEVQFNWYVDGVEVHNAKTKPREEQFNSTYRVVSVLTVLHQDWLNGKEYKCKVSNKGLPSSIEKTISKAKGQPREPQVYTLPPCQEEMTKNQVSLWCLVKGFYPSDIAVEWESNGQPENNYKTTPPVLDSDGSFFLYSRLTVDKSRWQEGNVFSCSVMHEALHNHYTQKSLSLSL
heavy: EVQLVESGGGFVQAGESLTLSCTSSTLTFTPYRMAWYRQAPGKQRDLVADISSGDGRTTNYADFAKGRFTISRDNIKNTVFLRMTNLKPEDTAVYYCNTFVSFVGIARSWGQGTQVTVSSESKYGPPCPPCPAPEAAGGPSVFLFPPKPKDTLMISRTPEVTCVVVDVSQEDPEVQFNWYVDGVEVHNAKTKPREEQFNSTYRVVSVLTVLHQDWLNGKEYKCKVSNKGLPSSIEKTISKAKGQPREPQVCTLPPSQEEMTKNQVSLSCAVKGFYPSDIAVEWESNGQPENNYKTTPPVLDSDGSFFLVSRLTVDKSRWQEGNVFSCSVMHEALHNRFTQKSLSLSLGGGGSGGGGSEVKLLESGGGLVQPKGSLKLSCAASGFTFNTYAMNWVRQAPGKGLEWVARIRSKYNNYATYYADSVKDRFTISRDDSQSILYLQMNNLKTEDTAMYYCVRHGNFGNSYVSWFAYWGQGTLVTVSSASTKGPSVFPLAPCSRSTSESTAALGCLVKDYFPEPVTVSWNSGALTSGVHTFPAVLQSSGLYSLSSVVTVPSSSLGTKTYTCNVDHKPSNTKVDKRV
light: QAVVTQESALTTSPGETVTLTCRSSTGAVTTSNYANWVQEKPDHLFTGLIGGTNKRAPGVPARFSGSLIGDKAALTITGAQTEDEAIYFCALWYSNLWVFGGGTKVEIKRTVAAPSVFIFPPSDEQLKSGTASVVCLLNNFYPREAKVQWKVDNALQSGNSQESVTEQDSKDSTYSLSSTLTLSKADYEKHKVYACEVTHQGLSSPVTKSFNRGEC
notes: Anti-CD3 TA1 Fab + anti-CEA VHH C17 on human IgG4 knob-into-hole Fc
B4: Knob-CEA+Hole-Fab (112) (bispecific antibody, human IgG4 S228P, kappa, F234A L235A)
chain: ESKYGPPCPPCPAPEAAGGPSVFLFPPKPKDTLMISRTPEVTCVVVDVSQEDPEVQFNWYVDGVEVHNAKTKPREEQFNSTYRVVSVLTVLHQDWLNGKEYKCKVSNKGLPSSIEKTISKAKGQPREPQVYTLPPCQEEMTKNQVSLWCLVKGFYPSDIAVEWESNGQPENNYKTTPPVLDSDGSFFLYSRLTVDKSRWQEGNVFSCSVMHEALHNHYTQKSLSLSLGGGGSGGGGSEVQLVESGGGFVQAGESLTLSCTSSTLTFTPYRMAWYRQAPGKQRDLVADISSGDGRTTNYADFAKGRFTISRDNIKNTVFLRMTNLKPEDTAVYYCNTFVSFVGIARSWGQGTQVTVSS
heavy: ESKYGPPCPPCPAPEAAGGPSVFLFPPKPKDTLMISRTPEVTCVVVDVSQEDPEVQFNWYVDGVEVHNAKTKPREEQFNSTYRVVSVLTVLHQDWLNGKEYKCKVSNKGLPSSIEKTISKAKGQPREPQVCTLPPSQEEMTKNQVSLSCAVKGFYPSDIAVEWESNGQPENNYKTTPPVLDSDGSFFLVSRLTVDKSRWQEGNVFSCSVMHEALHNRFTQKSLSLSLGGGGSGGGGSEVKLLESGGGLVQPKGSLKLSCAASGFTFNTYAMNWVRQAPGKGLEWVARIRSKYNNYATYYADSVKDRFTISRDDSQSILYLQMNNLKTEDTAMYYCVRHGNFGNSYVSWFAYWGQGTLVTVSSASTKGPSVFPLAPCSRSTSESTAALGCLVKDYFPEPVTVSWNSGALTSGVHTFPAVLQSSGLYSLSSVVTVPSSSLGTKTYTCNVDHKPSNTKVDKRV
light: QAVVTQESALTTSPGETVTLTCRSSTGAVTTSNYANWVQEKPDHLFTGLIGGTNKRAPGVPARFSGSLIGDKAALTITGAQTEDEAIYFCALWYSNLWVFGGGTKVEIKRTVAAPSVFIFPPSDEQLKSGTASVVCLLNNFYPREAKVQWKVDNALQSGNSQESVTEQDSKDSTYSLSSTLTLSKADYEKHKVYACEVTHQGLSSPVTKSFNRGEC
notes: as for B3

Key:
[1] = biological target: T1, human CD3ε/δ (ACRO systems, CDD-H52W1) (human, UniProt P07766 23-126; P04234 22-105); assay: BLI, antibody captured, antigen in solution;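 further: bispecific antibodies captured on AHIC biosensors to a 1.5 nm loading signal, in PBST with 0.02% detergent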
T1 construct: Bought protein; also called human CD3ϵ/CD3δ; human CD3 epsilon/delta antigen
Protocol: The bispecific antibodies were diluted to 5 ag/ml, and 1.5 nm protein was coupled to the surface of the AHIC sensor chip through 0.02% PBST.

[2] = biological target: T2, human CD3 on Jurkat cells (human, UniProt P07766 23-207; P04234 22-171; P09693 23-182); assay: FACS, Jurkat cells;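 further: flow cytometric binding of bispecific antibodies to Jurkat T cells, threefold serial dilutions incubated half an hour in the cold, EC50 taken from the fitted binding curve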
T2 construct: whole, on cells; CD3 complex as on Jurkat (Clone E6-1) cells; also called CD3 expressing cells (Jurkat)

Row | Binder | Kd [1] | koff [1] | kon [1] | EC50 [2]
1 | B1 | 3.66 nM | 0.00101 s⁻¹ | 303000 M⁻¹ s⁻¹ | 1.04 µg/mL and 8.02 nM
2 | B2 | 1.98 nM | 0.000565 s⁻¹ | 285000 M⁻¹ s⁻¹ | 8.88 µg/mL and 68.3 nM
3 | B3 | 2.08 nM | 0.000694 s⁻¹ | 333000 M⁻¹ s⁻¹ | 7.6 µg/mL and 58.5 nM
4 | B4 | 2.44 nM | 0.000614 s⁻¹ | 252000 M⁻¹ s⁻¹ | 5.32 µg/mL and 40.9 nM
